The results in this text go back to US20240173425A1 (Eli Lilly, published 2024).

Experiment [1] concerns the target T1, human CD33 ECD 18-232-His (human, UniProt P20138 18-232).
T1 construct: Printed as 'CD33 ECD 18-232-His'; also called human CD33 extra-cellular domain; not shown: His tag
Briefly: SPR, Biacore 8K, antibody captured on Protein A chip, CD33 ECD-His as analyte, 37 C, 1:1 model. The protocol: (§1) The affinity and binding kinetics of the exemplified anti-human CD33 antibodies to human and cynomolgus monkey CD33 ECD 18-232-His proteins was determined by surface plasmon resonance using Biacore 8K (GE Healthcare). Briefly, per the Instrument Handbook the antibody was captured on a Biacore Protein A chip followed by flowing CD33 ECD from 200 nM down to 0.782 nM in 2-fold serial dilution in PBS-P20-BSA (0.005% surfactant P20, 0.1 mg/mL BSA). All measurements were carried out at 37° C. Multi-cycle kinetics setting that ran each analyte concentration in a separate cycle regenerating the surface after each sample injection was used. The regeneration was optimized to maintain consistent surface properties from cycle to cycle. Each cycle started with a 3 minute injection of 0.1 μg/mL of the antibody at 10 μl/min flow rate, followed by 3 min injection of antigen at 50 μl/min flow rate and a 15 min dissociation phase in PBS-P20-BSA. The chip surface was then regenerated with 30 seconds injection of pH 1.5, 10 mM glycine buffer at 50 μl/min flow rate three times. The data was fit to a 1:1 binding model to derive kₐ and kd, and to calculate KD.

The target in experiment [2] is T2, cynomolgus monkey CD33 ECD 18-232-His (cynomolgus monkey).
T2 construct: also called cynomolgus monkey CD33 extra-cellular domain; not shown: His tag
T2 sequence (chain, as listed by the source): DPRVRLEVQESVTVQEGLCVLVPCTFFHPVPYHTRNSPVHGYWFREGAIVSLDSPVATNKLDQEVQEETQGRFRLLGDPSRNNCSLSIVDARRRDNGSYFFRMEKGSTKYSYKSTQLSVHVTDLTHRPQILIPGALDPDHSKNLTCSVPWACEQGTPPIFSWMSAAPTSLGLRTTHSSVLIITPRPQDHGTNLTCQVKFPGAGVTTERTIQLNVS
The experiment is described as above. The protocol: as §1

Experiment [3] addresses T1, human CD33 ECD 18-232-His. Put plainly: SPR, Biacore 8K, conjugate captured on Protein A chip, CD33 ECD-His as analyte, 37 C, 1:1 model. The protocol:
as §1

Experiment [4] concerns the target T2, cynomolgus monkey CD33 ECD 18-232-His. The description is as above. The protocol: as §1
Experiment [5] addresses T3, human CD33 on the cell surface of human monocytes / myeloid cells (human, UniProt P20138 18-364).
T3 construct: Native CD33 on primary human monocytes from PBMC; also called cell surface CD33; SIGLEC-3
Briefly: FACS on human monocytes (gated from human PBMC), Alexa Fluor 647-labelled antibody, 4-fold dilutions, 30 min at 4 C, mean fluorescence intensity. How it is done:
Freshly isolated cells PBMCs were resuspended at 2×10⁶ cells/mL and allowed to rest for 15 minutes at room temperature, then plated at 100 μL/well into a round bottom 96-well plate (COSTAR®) and washed with FACS buffer (PBS containing 2% fetal bovine serum from Corning®). […] Data analysis was performed using FlowJo software and statistical analysis was performed using GraphPad Prism 9.

Changes are numbered by the printed parent chain. Numbers in names are those of the source.

T1 sequence (P20138 18-232): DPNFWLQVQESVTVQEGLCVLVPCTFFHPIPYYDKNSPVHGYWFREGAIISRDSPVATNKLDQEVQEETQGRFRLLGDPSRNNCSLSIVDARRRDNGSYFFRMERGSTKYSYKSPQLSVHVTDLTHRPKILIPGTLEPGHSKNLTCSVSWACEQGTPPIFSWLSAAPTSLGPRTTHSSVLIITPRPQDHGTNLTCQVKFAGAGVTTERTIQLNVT
T3 sequence (P20138 18-364 limits assumed): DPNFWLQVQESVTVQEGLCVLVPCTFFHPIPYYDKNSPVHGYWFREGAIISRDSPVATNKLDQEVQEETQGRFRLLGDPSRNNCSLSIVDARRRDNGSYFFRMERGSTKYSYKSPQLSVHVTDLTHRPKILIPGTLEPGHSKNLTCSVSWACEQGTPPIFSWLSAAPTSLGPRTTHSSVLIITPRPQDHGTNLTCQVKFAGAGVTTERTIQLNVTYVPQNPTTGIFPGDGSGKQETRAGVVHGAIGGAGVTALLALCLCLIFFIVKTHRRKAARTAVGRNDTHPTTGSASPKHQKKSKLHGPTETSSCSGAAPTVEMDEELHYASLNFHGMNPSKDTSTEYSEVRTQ

B1: anti-human CD33 antibody Ab2 (antibody, human IgG1, kappa, L234A L235A, V domains shown)
VH: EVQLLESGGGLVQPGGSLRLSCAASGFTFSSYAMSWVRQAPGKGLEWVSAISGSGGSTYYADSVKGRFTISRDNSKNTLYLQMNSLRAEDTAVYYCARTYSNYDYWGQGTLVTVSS
VL: DIQMTQSPSSLSASVGDRVTITCQASQPTFNYLNWYQQKPGKAPKLLIYDASNLQTGVPSRFSGSGSGTDFTFTISSLQPEDIATYYCQQYEDLPTFGPGTKVDIKR
notes: Fully human IgG1AAA with S124C and A378C (EU numbering); also called anti-human CD33 Ab2
In experiment [1], B1 had a Kd of 1.14 nM, a koff of 0.000516 s⁻¹ and a kon of 454000 M⁻¹ s⁻¹. Moreover, in experiment [2], the affinity, expressed as Kd, was 4.28 nM; the off-rate (koff) was determined as 0.00279 s⁻¹; the association rate constant (kon) came out at 653000 M⁻¹ s⁻¹.

B2: anti-human CD33 Ab2 GC conjugate of Example 1b (antibody, human IgG1, kappa, L234A L235A, V domains shown)
VH: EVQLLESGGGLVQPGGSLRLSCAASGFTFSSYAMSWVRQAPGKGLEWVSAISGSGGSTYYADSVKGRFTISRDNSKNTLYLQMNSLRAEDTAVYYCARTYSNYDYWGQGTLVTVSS
VL: B1 VL
modifications: glucocorticoid receptor agonist payload-linker GC-L (Preparation 8, maleimide) conjugated to the engineered cysteines at positions 124 and 378 (EU numbering) of the heavy chain; n is 4 (average DAR 3.92 to 3.97)
Consider B2, for which, in experiment [3], the Kd was found to be 1.47 nM, the off-rate (koff) amounted to 0.000645 s⁻¹ and the kon was found to be 439000 M⁻¹ s⁻¹. Besides, in experiment [4], binding was put at a Kd of 4.65 nM, the dissociation rate constant (koff) amounted to 0.00478 s⁻¹ and the kon was 1.03e+06 M⁻¹ s⁻¹.

B3: anti-human CD33 antibody Ab1 (antibody, human IgG1, kappa, L234A L235A, V domains shown)
VH: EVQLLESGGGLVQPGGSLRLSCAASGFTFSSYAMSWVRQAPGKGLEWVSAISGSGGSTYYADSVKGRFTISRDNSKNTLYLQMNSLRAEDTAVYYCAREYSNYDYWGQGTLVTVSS
VL: B1 VL with P28D, T29V, N31R
notes: Fully human IgG1 with L234A, L235A, P329A (IgG1AAA, effector null) and engineered cysteines S124C and A378C (EU numbering), all already in the HC entry
For the molecule B3, in experiment [1], the equilibrium dissociation constant (Kd) amounted to 3.4 nM, the koff was 0.00118 s⁻¹ and the kon was determined as 346000 M⁻¹ s⁻¹.

B4: anti-human CD33 antibody Ab3 (antibody, human IgG1, kappa, L234A L235A, V domains shown)
VH: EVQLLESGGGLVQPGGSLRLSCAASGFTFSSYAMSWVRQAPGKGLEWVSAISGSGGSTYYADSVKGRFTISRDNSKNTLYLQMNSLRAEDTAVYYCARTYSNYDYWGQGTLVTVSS
VL: B1 VL with F30Y, N31I
notes: Fully human IgG1AAA with S124C and A378C (EU numbering)
With B4, in experiment [5], the 50% effective concentration (EC50 (read off the curve)) was about 5 ng/mL. In experiment [1], the Kd stood at 0.854 nM, the koff was 0.000486 s⁻¹ and the kon is 570000 M⁻¹ s⁻¹. In addition, in experiment [2], the Kd is 0.812 nM, the koff is 0.00108 s⁻¹ and the kon was determined as 1.34e+06 M⁻¹ s⁻¹.
